Positions count from the first letter of the chain named. Names may count otherwise.
T1: Murine CD73 ECD (murine, UniProt Q61503 29-551, limits assumed)
T1 construct: extracellular domain; In-house recombinant ECD; also called murine CD73 extracellular domain; muCD73
T1 sequence (looked up): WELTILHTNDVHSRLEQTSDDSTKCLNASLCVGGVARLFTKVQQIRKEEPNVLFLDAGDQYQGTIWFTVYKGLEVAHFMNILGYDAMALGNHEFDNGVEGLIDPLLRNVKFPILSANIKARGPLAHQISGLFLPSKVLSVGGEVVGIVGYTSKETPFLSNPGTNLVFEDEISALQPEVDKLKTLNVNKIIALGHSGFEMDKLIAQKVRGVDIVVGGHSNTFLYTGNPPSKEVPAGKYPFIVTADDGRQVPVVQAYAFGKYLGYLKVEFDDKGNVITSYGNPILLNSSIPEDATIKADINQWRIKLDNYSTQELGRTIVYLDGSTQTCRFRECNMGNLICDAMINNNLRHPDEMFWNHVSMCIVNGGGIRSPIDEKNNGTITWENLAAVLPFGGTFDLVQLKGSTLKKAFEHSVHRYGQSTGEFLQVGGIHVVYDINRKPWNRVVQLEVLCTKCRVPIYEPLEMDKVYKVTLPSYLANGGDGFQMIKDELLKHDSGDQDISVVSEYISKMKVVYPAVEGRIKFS

T2: Human CD73 ECD (human, UniProt P21589 27-549)
T2 construct: Biotinylated in some assays; also called human CD73 extracellular domain; huCD73
T2 sequence: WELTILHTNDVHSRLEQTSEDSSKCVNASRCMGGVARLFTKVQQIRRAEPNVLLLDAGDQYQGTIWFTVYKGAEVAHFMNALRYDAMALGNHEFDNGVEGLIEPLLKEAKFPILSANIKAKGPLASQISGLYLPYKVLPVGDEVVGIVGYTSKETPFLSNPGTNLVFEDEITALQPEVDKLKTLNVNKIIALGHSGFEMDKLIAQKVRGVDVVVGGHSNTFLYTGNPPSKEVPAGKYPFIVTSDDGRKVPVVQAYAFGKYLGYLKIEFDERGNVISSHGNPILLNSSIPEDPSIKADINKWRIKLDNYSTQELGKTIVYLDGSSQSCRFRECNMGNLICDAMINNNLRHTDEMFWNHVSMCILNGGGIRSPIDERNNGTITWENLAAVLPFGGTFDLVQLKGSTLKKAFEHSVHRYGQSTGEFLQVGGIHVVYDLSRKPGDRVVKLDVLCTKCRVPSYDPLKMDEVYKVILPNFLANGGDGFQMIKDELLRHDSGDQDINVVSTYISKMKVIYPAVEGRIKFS

T3: Human CD73 on cells (MDA-MB-231, Jurkat CD73 knock-in, NCI-H322) (human, UniProt P21589 27-549)
T3 construct: GPI-anchored native protein; also called native human CD73
T3 sequence: T2 sequence

T4: Cynomolgus CD73 on MK-1 cells (cynomolgus, UniProt A0A2K5V5U7 27-549)
T4 construct: whole, on cells; also called MK-1 (cyno)
T4 sequence: T2 sequence with M199T, T350A, V466I

T5: Murine CD73 on cells (4T1, Jurkat mCD73 knock-in) (murine, UniProt Q61503 29-551)
T5 construct: whole, on cells; also called 4T1 (murine)
T5 sequence (looked up): T1 sequence (looked up)

B1: CD730010 GL9 VH A50L Fab (Fab, name in Kabat numbering, V domains shown)
VH: EVQLLESGGGLVQPGGSLRLSCAASGFTFSSYAMSWVRQAPGKGLEWVSLISGSGGSTYYADSVKGRFTISRDNSKNTLYLQMNSLRAEDTAVYYCARLGYSTIDYWGRGTLVTVSS
VL: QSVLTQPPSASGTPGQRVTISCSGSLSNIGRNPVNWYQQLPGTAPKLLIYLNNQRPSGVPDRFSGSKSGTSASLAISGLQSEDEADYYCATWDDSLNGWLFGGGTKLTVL
notes: Bacterial Fab, normalized supernatant
B2: CD730010 GL9 VH G54N Fab (Fab, name in Kabat numbering, V domains shown)
VH: B1 VH with L50A, G55N
VL: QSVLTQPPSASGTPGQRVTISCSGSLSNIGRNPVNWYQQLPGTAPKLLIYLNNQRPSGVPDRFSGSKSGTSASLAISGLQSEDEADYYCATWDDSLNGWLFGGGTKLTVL
notes: as for B1
B3: CD730010 GL9 VH G54W Fab (Fab, name in Kabat numbering, V domains shown)
VH: B1 VH with L50A, G55W
VL: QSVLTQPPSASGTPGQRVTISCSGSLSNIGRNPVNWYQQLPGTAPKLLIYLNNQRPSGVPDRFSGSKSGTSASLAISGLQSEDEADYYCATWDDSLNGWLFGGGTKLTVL
notes: as for B1
B4: C2 (IgG1-TM) (antibody, V domains shown)
VH: B1 VH with M34Y, S52W, G55W, Y106M
VL: QSVLTQPPSASGTPGQRVTISCSGSLSNIGRNPVNWYQQLPGTAPKLLIYLDNLRLGGVPDRFSGSKSGTSASLAISGLQSEDEADYYCATWDDSLKGWLFGGGTKLTVL
notes: IgG1-TM format; also called clone 10 C2
B5: G10 (IgG1-TM) (antibody, V domains shown)
VH: B1 VH with M34Y, L50A, G55W, S57R, Y106L
VL: B4 VL with P33D, D52N, L54Q
notes: IgG1-TM format; also called clone 10 G10
B6: 73combo2 (C2+GRVE+HPT) (antibody, V domains shown)
VH: B1 VH with M34Y, S52W, G55W, S102G, T103R, I104V, Y106E
VL: B4 VL with L96H, K97P, L100T
notes: IgG1-TM format; also called clone 10 combo2
B7: 73combo5 (G10+GRVE+HPT) (antibody, V domains shown)
VH: B1 VH with M34Y, L50A, G55W, S57R, S102G, T103R, I104V, Y106E
VL: B4 VL with P33D, D52N, L54Q, L96H, K97P, L100T
notes: IgG1-TM format; also called clone 10 combo5
B8: CD730002SGMY CDRH2 G65R (Fab, V domains shown)
VH: EVQLLESGGGLVQPGGSLRLSCAASGFTFSSYAMSWVRQAPGKGLEWVSAISGSGGSTYYADSVKRRFTISRDNSKNTLYLQMNSLRAEDTAVYYCARDKGYYWYMDVWGQGTMVTVSS
VL: QSVLTQPPSVSVSPGQTASITCSGDKVGDKYASWYQQKPGQSPVLVIYEDTKRPSGIPERFSGSNSGNTATLTISGTQAMDEADYYCQAWDTSFWVFGGGTKLTVL
notes: format in the FACS read-out not clearly stated
B9: CD730002SGMY CDRH1 M34R (Fab, V domains shown)
VH: B8 VH with M34R, R66G
VL: B8 VL
notes: as for B8
B10: CD730002SGMY CDRH1 Y32V (Fab, V domains shown)
VH: B8 VH with Y32V, R66G
VL: B8 VL
notes: as for B8
B11: CD730002SGMY CDRH2 A60G (Fab, V domains shown)
VH: B8 VH with A61G, R66G
VL: B8 VL
notes: as for B8
B12: CD730002SGMY CDRH2 T57P (Fab, V domains shown)
VH: B8 VH with T58P, R66G
VL: B8 VL
notes: as for B8
B13: CD730002SGMY CDRL2 P55H (Fab, V domains shown)
VH: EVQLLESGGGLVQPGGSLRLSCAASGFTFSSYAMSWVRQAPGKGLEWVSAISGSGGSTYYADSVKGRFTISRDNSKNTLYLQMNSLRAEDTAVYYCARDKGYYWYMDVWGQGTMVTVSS
VL: B8 VL with P54H
notes: format not clearly stated
B14: CD730002SGMY CDRL2 T52S (Fab, V domains shown)
VH: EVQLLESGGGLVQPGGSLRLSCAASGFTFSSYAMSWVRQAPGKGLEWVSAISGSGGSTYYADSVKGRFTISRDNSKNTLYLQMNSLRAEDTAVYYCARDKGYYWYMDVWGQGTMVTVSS
VL: QSVLTQPPSVSVSPGQTASITCSGDKVGDKYASWYQQKPGQSPVLVIYEDSKRPSGIPERFSGSNSGNTATLTISGTQAMDEADYYCQAWDTSFWVFGGGTKLTVLL
notes: format not clearly stated
B15: CD730002SGMY CDRL2 R54Y (Fab, V domains shown)
VH: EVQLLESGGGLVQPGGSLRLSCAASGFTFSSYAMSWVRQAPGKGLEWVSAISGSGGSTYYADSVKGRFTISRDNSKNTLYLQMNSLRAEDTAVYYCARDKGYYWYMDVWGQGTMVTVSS
VL: B14 VL with S51T, R53Y, L107V
notes: format not clearly stated
B16: CD730047 (antibody, V domains shown)
VH: EVQLVQSGGGVVQPGRSLRLSCAASGFTFSSYGMHWVRQAPGKGLEWVAVISYDGSIKYYADSVKGRFAISRDNAKNTLYLQMNSLRREDTAMYYCASGLTGVAGALGVWGRGTLVTVSS
VL: QSVLTQPPSASGAPGQRVTISCSGSSSNIGSNTVNWYQRLPGAAPQLLIYNNDQRPSGIPDRFSGSKSGTSGSLVISGLQSEDEADYYCAAWDDSLSGNVFGTGTKVTVL
notes: IgG1-TM format; also called CD730047 antibody
B17: Phen0203 hIgG1 (antibody, V domains shown)
VH: EVQLVQSGGGVVQPGRSLRLSCAASGFRFSDFAMHWVRQAPGKGLEWVAGISYDGGNKYYADSVKGRFTISRDNSNNTLYLQMNSLRAEDTAVYYCAKDHGYSGYYGHLDYWGRGTLVTVSS
VL: not shown
B18: CD730068 (antibody, V domains shown)
VH: EVQLLESGGGLVQPGGSLRLSCAASGFTFSNYIMGWVRQAPGKGLEWVSSISSSGGATIYADSVKGRFTISRDNSKNTLYLQMNSLRAEDMAVYYCAKDHLGGHGMDVWGQGTTVTVSS
VL: DIQMTQSPSSLSASVGDRVTITCRASQDISNYLAWFQQKPGKAPKSLIFAASSLESGVPSKFSGSGSGTDFTLTISSLQPEDSATYYCQQYNSYPLTFGGGTKVEIK
B19: CD730069 (antibody, V domains shown)
VH: EVQLLESGGGLVQPGGSLRLSCAASGFTFSEYQMGWVRQAPGKGLEWVSYIRSSGGQTIYADSVKGRFTISRDNSKNTLYLQMNSLRAEDTAVYYCARRTYSSGWHIDYWGQGTLVTVSS
VL: DIQMTQSPDSLSASVGDRVTITCRASQSISRYLNWYQQKPGKAPKLLIYGASSLQSGVPSRFSGSGSGTDFSLTISSLQLEDFATYYCQQSYRTPLTFGGGTKVEIQ

Molecular target: T1, Murine CD73 ECD
Experiment: direct ELISA, normalized Fab supernatant, vs CD730010 GL9

Row | Binder | ELISA signal, fold improvement over parental antibody
1 | B1 | 3 fold
2 | B2 | 7.1 fold
3 | B3 | 3.7 fold

Molecular target: T2, Human CD73 ECD
Experiment: as above

Row | Binder | ELISA signal, fold improvement over parental antibody
4 | B1 | 4.2 fold
5 | B2 | 8.9 fold
6 | B3 | 4.2 fold

Molecular target: T2, Human CD73 ECD
Experiment: SPR (Proteon)

Row | Binder | Kd
7 | B4 | 0.023 nM
8 | B5 | 0.009 nM
9 | B6 | 0.005 nM
10 | B7 | 0.007 nM

Molecular target: T3, Human CD73 on cells (MDA-MB-231, Jurkat …)
Experiment: FACS on MDA-MB-231 cells, vs CD730002SGMY

Row | Binder | FACS signal, fold improvement over parental antibody
11 | B8 | 1.3 fold
12 | B9 | 1.1 fold
13 | B10 | 1.2 fold
14 | B11 | 1.3 fold
15 | B12 | 1.5 fold
16 | B13 | 1.5 fold
17 | B14 | 1.5 fold
18 | B15 | 1.2 fold

Molecular target: T2, Human CD73 ECD
Experiment: binding assay, format not stated

Row | Binder | 1/EC50
19 | B16 | 0 nM⁻¹

Molecular target: T3, Human CD73 on cells (MDA-MB-231, Jurkat …)
Experiment: cell-based or functional assay

Row | Binder | FabZAP internalization, EC50, MDA-MB-231 | FabZAP internalization, maximum toxicity, MDA-MB-231
20 | B17 | 0.0925 nM | 91%

Molecular target: T2, Human CD73 ECD
Experiment: cell-based or functional assay

Row | Binder | Enzyme Inhibition, rCD73, 1/EC50 (nM)
21 | B16 | 0.001 nM⁻¹
22 | B18 | 0 nM⁻¹
23 | B19 | 0.038 nM⁻¹

Molecular target: T3, Human CD73 on cells (MDA-MB-231, Jurkat …)
Experiment: cell-based or functional assay
Remark: another data set of the same source

Row | Binder | Enzyme Inhibition, MDA-MB-231, 1/EC50 (nM) | Internalization, MDA-MB-231, 1/EC50 (nM)
24 | B16 | 0.027 nM⁻¹ | 0.001 nM⁻¹
25 | B18 | 0 nM⁻¹ | 0 nM⁻¹
26 | B19 | 0.0013 nM⁻¹ | 0.038 nM⁻¹

Molecular target: T4, Cynomolgus CD73 on MK-1 cells
Experiment: flow cytometry on cells

Row | Binder | Kd
27 | B4 | 0.105 nM
28 | B5 | 0.258 nM
29 | B6 | 0.074 nM
30 | B7 | 0.078 nM

Molecular target: T5, Murine CD73 on cells (4T1, Jurkat mCD73 …)
Experiment: flow cytometry on cells

Row | Binder | Kd
31 | B4 | 0.067 nM
32 | B5 | 0.259 nM
33 | B6 | 0.064 nM
34 | B7 | 0.205 nM

Molecular target: T3, Human CD73 on cells (MDA-MB-231, Jurkat …)
Experiment: flow cytometry on cells

Row | Binder | Kd
35 | B4 | 0.158 nM
36 | B5 | 0.354 nM
37 | B6 | 0.166 nM
38 | B7 | 0.169 nM

— patent US20230340152A1 (published 2023)
